From PMC10786891, “Massively parallel profiling of RNA-targeting CRISPR-Cas13d”

T1: EsCas13d, nuclease-dead (Eubacterium siraeum, UniProt B0MS50, R295A;H300A;R849A;H854A)
T1 sequence: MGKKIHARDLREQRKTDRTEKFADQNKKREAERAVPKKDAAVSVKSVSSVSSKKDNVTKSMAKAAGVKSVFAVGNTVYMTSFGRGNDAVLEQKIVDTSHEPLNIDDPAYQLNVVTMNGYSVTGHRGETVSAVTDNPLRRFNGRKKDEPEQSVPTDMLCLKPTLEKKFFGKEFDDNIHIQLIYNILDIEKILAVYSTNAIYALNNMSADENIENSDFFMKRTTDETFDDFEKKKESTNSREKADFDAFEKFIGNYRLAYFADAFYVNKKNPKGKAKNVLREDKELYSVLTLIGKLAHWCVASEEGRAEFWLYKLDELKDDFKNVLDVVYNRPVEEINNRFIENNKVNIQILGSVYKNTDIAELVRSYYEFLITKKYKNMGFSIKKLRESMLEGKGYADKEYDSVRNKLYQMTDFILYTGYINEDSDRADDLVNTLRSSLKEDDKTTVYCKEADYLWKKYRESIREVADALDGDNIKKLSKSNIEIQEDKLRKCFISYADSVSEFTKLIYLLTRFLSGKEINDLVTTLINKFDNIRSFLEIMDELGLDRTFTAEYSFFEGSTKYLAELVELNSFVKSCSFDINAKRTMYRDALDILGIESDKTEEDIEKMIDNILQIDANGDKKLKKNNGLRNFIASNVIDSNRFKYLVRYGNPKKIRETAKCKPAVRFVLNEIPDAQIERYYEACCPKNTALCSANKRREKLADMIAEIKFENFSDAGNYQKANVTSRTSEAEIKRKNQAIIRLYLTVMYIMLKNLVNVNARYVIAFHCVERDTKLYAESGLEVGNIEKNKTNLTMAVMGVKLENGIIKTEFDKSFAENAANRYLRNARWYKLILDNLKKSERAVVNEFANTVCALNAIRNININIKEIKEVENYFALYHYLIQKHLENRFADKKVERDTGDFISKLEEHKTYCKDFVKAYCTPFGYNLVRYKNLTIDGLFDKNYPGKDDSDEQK


Each binder was assayed against T1, EsCas13d, nuclease-dead (assay: crRNA (strand 1, pre-loaded); Mg2+; 40 mM Tris-HCl pH 7.5, 150 mM NaCl, 6 mM MgCl2, 1 mM DTT, 0.1% Tween-20, 0.2 mg/ml BSA; 25 C; 10 min per concentration, then washed). Conditions: tags: His6-TwinStrep-SUMO cleaved; N-terminal SNAP kept (SNAP-Surface 488); label: 3' end held by stalled T7 RNA polymerase.

Binder	Kd [nM]
target 2 MT 5'PFS AGC 3'PFS AAA (mixed) RNA 1: CACCCGUGCAAAAUUGCAGGGGUCUAAAACCUUCUCCAAAUUGUUUCAUCCU RNA 2: GGGAAUGGAUCCACAUCUACGAAUUCAGCAGGAUGAAACAAUUUGGAGAAGAAAAGAUCGGAAGAGCACACGU	13 ± 4
target 2 MT 5'PFS AGC 3'PFS AAG (mixed) RNA 1: CACCCGUGCAAAAUUGCAGGGGUCUAAAACCUUCUCCAAAUUGUUUCAUCCU RNA 2: GGGAAUGGAUCCACAUCUACGAAUUCAGCAGGAUGAAACAAUUUGGAGAAGAAGAGAUCGGAAGAGCACACGU	9.2 ± 2
target 2 MT 5'PFS GUU 3'PFS AAC (mixed) RNA 1: CACCCGUGCAAAAUUGCAGGGGUCUAAAACCUUCUCCAAAUUGUUUCAUCCU RNA 2: GGGAAUGGAUCCACAUCUACGAAUUCGUUAGGAUGAAACAAUUUGGAGAAGAACAGAUCGGAAGAGCACACGU	11.9 ± 1.3
target 2 MT 5'PFS GUU 3'PFS AAA (mixed) RNA 1: CACCCGUGCAAAAUUGCAGGGGUCUAAAACCUUCUCCAAAUUGUUUCAUCCU RNA 2: GGGAAUGGAUCCACAUCUACGAAUUCGUUAGGAUGAAACAAUUUGGAGAAGAAAAGAUCGGAAGAGCACACGU	14 ± 7
target 2 MT 5'PFS AGC 3'PFS UGC (mixed) RNA 1: CACCCGUGCAAAAUUGCAGGGGUCUAAAACCUUCUCCAAAUUGUUUCAUCCU RNA 2: GGGAAUGGAUCCACAUCUACGAAUUCAGCAGGAUGAAACAAUUUGGAGAAGUGCAGAUCGGAAGAGCACACGU	8.2 ± 1.4
target 2 MT 5'PFS GUU 3'PFS AAG (mixed) RNA 1: CACCCGUGCAAAAUUGCAGGGGUCUAAAACCUUCUCCAAAUUGUUUCAUCCU RNA 2: GGGAAUGGAUCCACAUCUACGAAUUCGUUAGGAUGAAACAAUUUGGAGAAGAAGAGAUCGGAAGAGCACACGU	9.3 ± 0.8
target 2 MT 5'PFS UCU 3'PFS UGC (mixed) RNA 1: CACCCGUGCAAAAUUGCAGGGGUCUAAAACCUUCUCCAAAUUGUUUCAUCCU RNA 2: GGGAAUGGAUCCACAUCUACGAAUUCUCUAGGAUGAAACAAUUUGGAGAAGUGCAGAUCGGAAGAGCACACGU	11.7 ± 2.1
target 1 insU 3' of 22,insA 3' of 4 (mixed) RNA 1: CACCCGUGCAAAAAUGCAGGGGUCUAAAACUGAGCGGAUAACCUCUCUAUGG RNA 2: GGGAAUGGAUCCACAUCUACGAAUUCGUACUCAUAGAGAGGUUAUCCGCAUCACCGAGAUCGGAAGAGCACACGU	23 ± 1.9
target 2 MT 5'PFS UCU 3'PFS UGA (mixed) RNA 1: CACCCGUGCAAAAUUGCAGGGGUCUAAAACCUUCUCCAAAUUGUUUCAUCCU RNA 2: GGGAAUGGAUCCACAUCUACGAAUUCUCUAGGAUGAAACAAUUUGGAGAAGUGAAGAUCGGAAGAGCACACGU	14.5 ± 3.5
target 2 MT 5'PFS AGA 3'PFS AAG (mixed) RNA 1: CACCCGUGCAAAAUUGCAGGGGUCUAAAACCUUCUCCAAAUUGUUUCAUCCU RNA 2: GGGAAUGGAUCCACAUCUACGAAUUCAGAAGGAUGAAACAAUUUGGAGAAGAAGAGAUCGGAAGAGCACACGU	7.1 ± 1.3
target 2 MT 5'PFS AGA 3'PFS AAA (mixed) RNA 1: CACCCGUGCAAAAUUGCAGGGGUCUAAAACCUUCUCCAAAUUGUUUCAUCCU RNA 2: GGGAAUGGAUCCACAUCUACGAAUUCAGAAGGAUGAAACAAUUUGGAGAAGAAAAGAUCGGAAGAGCACACGU	4.5 ± 1.2
target 2 MT 5'PFS AGA 3'PFS AAC (mixed) RNA 1: CACCCGUGCAAAAUUGCAGGGGUCUAAAACCUUCUCCAAAUUGUUUCAUCCU RNA 2: GGGAAUGGAUCCACAUCUACGAAUUCAGAAGGAUGAAACAAUUUGGAGAAGAACAGAUCGGAAGAGCACACGU	5.8 ± 1
target 2 MT 5'PFS UGU 3'PFS CAC (mixed) RNA 1: CACCCGUGCAAAAUUGCAGGGGUCUAAAACCUUCUCCAAAUUGUUUCAUCCU RNA 2: GGGAAUGGAUCCACAUCUACGAAUUCUGUAGGAUGAAACAAUUUGGAGAAGCACAGAUCGGAAGAGCACACGU	16 ± 2.5
